Results as given in the supplement of paper PMC11246515.
± gives the standard deviation of the averaged measurements.

Assay: total protein half-life in vivo (active degradation + dilution); higher = more stable protein
[1] = wild type E. coli NCM3722, growth: C-lim chemostat, doubling time 3 h
[2] = wild type E. coli NCM3722, growth: C-lim chemostat, doubling time 6 h
[3] = wild type E. coli NCM3722, growth: C-lim chemostat, doubling time 12 h
[4] = E. coli NCM3722 delta-clpP delta-lon delta-hslV, growth: N-lim chemostat, doubling time 6 h
[5] = E. coli NCM3722 delta-clpP, growth: N-lim chemostat, doubling time 6 h
[6] = E. coli NCM3722 delta-hslV, growth: N-lim chemostat, doubling time 6 h
[7] = E. coli NCM3722 delta-lon, growth: N-lim chemostat, doubling time 6 h
[8] = E. coli NCM3722 delta-smpB, growth: N-lim chemostat, doubling time 6 h
[9] = wild type E. coli NCM3722, growth: N-lim chemostat, doubling time 6 h
[10] = wild type E. coli NCM3722, growth: N-lim chemostat, doubling time 12 h
[11] = wild type E. coli NCM3722, growth: P-lim chemostat, doubling time 6 h
[12] = wild type E. coli NCM3722, growth: P-lim chemostat, doubling time 12 h

| Sequence | total protein half-life in vivo [1] [h] | total protein half-life in vivo [2] [h] | total protein half-life in vivo [3] [h] | total protein half-life in vivo [4] [h] | total protein half-life in vivo [5] [h] | total protein half-life in vivo [6] [h] | total protein half-life in vivo [7] [h] | total protein half-life in vivo [8] [h] | total protein half-life in vivo [9] [h] | total protein half-life in vivo [10] [h] | total protein half-life in vivo [11] [h] | total protein half-life in vivo [12] [h] |
| --- | --- | --- | --- | --- | --- | --- | --- | --- | --- | --- | --- | --- |
| MAGWHLDTKMAQDIVARTMRIIDTNINVMDARGRIIGSGDRERIGELHEGALLVLSQGRVVDIDDAVARHLHGVRQGINLPLRLEGEIVGVIGLTGEPENLRKYGELVCMTAEMMLEQSRLMHLLAQDSRLREELVMNLIQAEENTPALTEWAQRLGIDLNQPRVVAIVEVDSGQLGVDSAMAELQQLQNALTTPERNNLVAIVSLTEMVVLKPALNSFGRWDAEDHRKRVEQLITRMKEYGQLRFRVSLGNYFTGPGSIARSYRTAKTTMVVGKQRMPESRCYFYQDLMLPVLLDSLRGDWQANELARPLARLKTMDNNGLLRRTLAAWFRHNVQPLATSKALFIHRNTLEYRLNRISELTGLDLGNFDDRLLLYVALQLDEER | 2.67 ± 0.12 | 6.76 | 10.2 ± 3 | – | – | – | – | – | – | – | – | – |
| MAHQLKLLKDDFFASDQQAVAVADRYPQDVFAEHTHDFCELVIVWRGNGLHVLNDRPYRITRGDLFYIHADDKHSYASVNDLVLQNIIYCPERLKLNLDWQGAIPGFNASAGQPHWRLGSMGMAQARQVIGQLEHESSQHVPFANEMAELLFGQLVMLLNRHRYTSDSLPPTSSETLLDKLITRLAASLKSPFALDKFCDEASCSERVLRQQFRQQTGMTINQYLRQVRVCHAQYLLQHSRLLISDISTECGFEDSNYFSVVFTRETGMTPSQWRHLNSQKD | 1.63 | – | – | – | – | – | – | – | – | – | – | – |
| MAIEQTAITRATFDEVILPIYAPAEFIPVKGQGSRIWDQQGKEYVDFAGGIAVTALGHCHPALVNALKTQGETLWHISNVFTNEPALRLGRKLIEATFAERVVFMNSGTEANETAFKLARHYACVRHSPFKTKIIAFHNAFHGRSLFTVSVGGQPKYSDGFGPKPADIIHVPFNDLHAVKAVMDDHTCAVVVEPIQGEGGVTAATPEFLQGLRELCDQHQALLVFDEVQCGMGRTGDLFAYMHYGVTPDILTSAKALGGGFPISAMLTTAEIASAFHPGSHGSTYGGNPLACAVAGAAFDIINTPEVLEGIQAKRQRFVDHLQKIDQQYDVFSDIRGMGLLIGAELKPQYKGRARDFLYAGAEAGVMVLNAGPDVMRFAPSLVVEDADIDEGMQRFAHAVAKVVGA | 3.53 ± 0.35 | 6.1 ± 0.17 | 9.18 ± 0.29 | 5.24 ± 0.26 | 4.41 ± 0.43 | 4.47 ± 0.0086 | 4.76 ± 0.3 | 4.4 ± 0.099 | 4.42 ± 0.3 | 7.08 ± 0.24 | 5.71 ± 0.09 | 11.36 ± 0.11 |
| MAIHNRAGQPAQQSDLINVAQLTAQYYVLKPEAGNAEHAVKFGTSGHRGSAARHSFNEPHILAIAQAIAEERAKNGITGPCYVGKDTHALSEPAFISVLEVLAANGVDVIVQENNGFTPTPAVSNAILVHNKKGGPLADGIVITPSHNPPEDGGIKYNPPNGGPADTNVTKVVEDRANALLADGLKGVKRISLDEAMASGHVKEQDLVQPFVEGLADIVDMAAIQKAGLTLGVDPLGGSGIEYWKRIGEYYNLNLTIVNDQVDQTFRFMHLDKDGAIRMDCSSECAMAGLLALRDKFDLAFANDPDYDRHGIVTPAGLMNPNHYLAVAINYLFQHRPQWGKDVAVGKTLVSSAMIDRVVNDLGRKLVEVPVGFKWFVDGLFDGSFGFGGEESAGASFLRFDGTPWSTDKDGIIMCLLAAEITAVTGKNPQEHYNELAKRFGAPSYNRLQAAATSAQKAALSKLSPEMVSASTLAGDPITARLTAAPGNGASIGGLKVMTDNGWFAARPSGTEDAYKIYCESFLGEEHRKQIEKEAVEIVSEVLKNA | 2.98 ± 0.16 | – | 9.719 ± 0.083 | 5.51 ± 0.17 | 5.19 ± 0.29 | 5.82 ± 0.08 | 5.31 ± 0.31 | 5.64 ± 0.31 | 5.2 ± 0.099 | 9.34 ± 0.22 | 5.905 ± 0.033 | 11.6 ± 0.12 |
| MAIIPKNYARLESGYREKALKIYPWVCGRCSREFVYSNLRELTVHHIDHDHTNNPEDGSNWELLCLYCHDHEHSKYTEADQYGTTVIAGEDAQKDVGEAKYNPFADLKAMMNKKK [P0AAQ2] | 0.968 ± 0.29 | 1.73 | 2.42 | 4.15 ± 1.2 | 1.71 ± 0.098 | 1.5 ± 0.031 | 2.74 ± 0.48 | 1.63 ± 0.71 | 1.97 | 1.54 | 1.18 | 3.1 ± 0.97 |
| MAIKLEIKNLYKIFGEHPQRAFKYIEQGLSKEQILEKTGLSLGVKDASLAIEEGEIFVIMGLSGSGKSTMVRLLNRLIEPTRGQVLIDGVDIAKISDAELREVRRKKIAMVFQSFALMPHMTVLDNTAFGMELAGINAEERREKALDALRQVGLENYAHSYPDELSGGMRQRVGLARALAINPDILLMDEAFSALDPLIRTEMQDELVKLQAKHQRTIVFISHDLDEAMRIGDRIAIMQNGEVVQVGTPDEILNNPANDYVRTFFRGVDISQVFSAKDIARRTPNGLIRKTPGFGPRSALKLLQDEDREYGYVIERGNKFVGAVSIDSLKTALTQQQGLDAALIDAPLAVDAQTPLSELLSHVGQAPCAVPVVDEDQQYVGIISKGMLLRALDREGVNNG | 1.16 | – | – | 5.58 ± 1.6 | – | – | – | – | 5.28 | – | – | – |
| MAIKLIAIDMDGTLLLPDHTISPAVKNAIAAARARGVNVVLTTGRPYAGVHNYLKELHMEQPGDYCITYNGALVQKAADGSTVAQTALSYDDYRFLEKLSREVGSHFHALDRTTLYTANRDISYYTVHESFVATIPLVFCEAEKMDPNTQFLKVMMIDEPAILDQAIARIPQEVKEKYTVLKSAPYFLEILDKRVNKGTGVKSLADVLGIKPEEIMAIGDQENDIAMIEYAGVGVAMDNAIPSVKEVANFVTKSNLEDGVAFAIEKYVLN [P0A8Y5] | 3.08 ± 0.22 | 5.71 ± 0.32 | 9.92 ± 0.27 | 4 ± 0.43 | 3.61 ± 0.23 | 3.55 ± 0.38 | 3.69 ± 0.1 | 3.408 ± 0.021 | 3.52 ± 0.2 | 5.28 ± 0.29 | 5.06 ± 0.13 | 11.4 ± 0.92 |
| MAIPAFGLGTFRLKDDVVISSVITALELGYRAIDTAQIYDNEAAVGQAIAESGVPRHELYITTKIWIENLSKDKLIPSLKESLQKLRTDYVDLTLIHWPSPNDEVSVEEFMQALLEAKKQGLTREIGISNFTIPLMEKAIAAVGAENIATNQIELSPYLQNRKVVAWAKQHGIHITSYMTLAYGKALKDEVIARIAAKHNATPAQVILAWAMGEGYSVIPSSTKRKNLESNLKAQNLQLDAEDKKAIAALDCNDRLVSPEGLAPEWD | 3.05 ± 0.099 | 5.39 ± 0.67 | 10.7 ± 6.2 | 4.33 ± 0.17 | 4.57 ± 0.071 | 4.59 ± 0.27 | 4.76 ± 0.34 | 4.78 ± 0.36 | 4.615 ± 0.044 | 8.62 ± 3.3 | 5.21 ± 0.41 | 11.4 ± 0.5 |
| MAIPKLQAYALPESHDIPQNKVDWAFEPQRAALLIHDMQDYFVSFWGENCPMMEQVIANIAALRDYCKQHNIPVYYTAQPKEQSDEDRALLNDMWGPGLTRSPEQQKVVDRLTPDADDTVLVKWRYSAFHRSPLEQMLKESGRNQLIITGVYAHIGCMTTATDAFMRDIKPFMVADALADFSRDEHLMSLKYVAGRSGRVVMTEELLPAPIPASKAALREVILPLLDESDEPFDDDNLIDYGLDSVRMMALAARWRKVHGDIDFVMLAKNPTIDAWWKLLSREVK [P0ADI4] | 2.18 ± 0.18 | 3.32 ± 0.47 | 5.74 ± 0.72 | 6.06 ± 2.3 | 2.48 | 1.47 | – | 1.73 ± 0.48 | – | 4.49 | – | 5.51 |
| MAIRKRFIAGAKCPACQAQDSMAMWRENNIDIVECVKCGHQMREADKEARDHVRKDEQVIGIFHPD [P0ADW8] | 1.8 ± 0.47 | 4.08 ± 1.4 | 2.51 | 4.91 ± 0.73 | 3.52 ± 0.46 | – | – | 2.16 ± 0.17 | – | 2.52 | 3.48 | 7.36 ± 1.6 |
